This is an account of results in the domain aggregation screens of Martell et al. (2025).
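Note: 20 min heating vs room temperature control held 20 min.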

This series is described as follows: soluble fraction after stress (log2 fold change); higher = more stays soluble; pooled small domains, quantitative proteomics. The settings on record: stress: 75 degC.
“HMTALISGNKAMQMLELSRHSFEKIVKDGLLSIVHEGDKKYYEIGEVEAFMGSDTYKELVNGV”: the “soluble fraction (log2)” value was found to be 0.449.

In the case of “HMTALSIGTVVRFTGDRHYISSTGDTGYPASPGLAKITSINPGSKHPYHLIHIDNTSNVYGWVNKQDIIT”, the “soluble fraction (log2)” value is -1.17.

In the case of “HMTAQLSITLNGETRRAAAGSIADLVRSLELDPAKVAVERNGLIVPRSTLAEVALGDGDVLEIVHFV”, the “soluble fraction (log2)” value was -1.

Regarding “HMTASTLSYSKFNEQVVQNQVRKVTFQGEQVKGELISGQTFTTTVPANDTTLWPMLKAHNVDTAVTAA”, the “soluble fraction (log2)” value stood at 0.186.

For “HMTASVTDAMFELIDELPKLGKTSFRQLTADLVDRLQVVVTFLAVLELYKQGHVELDQSERFGDITVVWTG”, the “soluble fraction (log2)” value was found to be 0.208.

Take “HMTATIEEVNELTQSARVNINVPYAAKDEAKAYGAKWDDVERTWYTTGENYAQNKDFFDGFNPTAS”: the “soluble fraction (log2)” value came out at 0.583.

With “HMTATWLTYYRIKAGLTQKRLAELAGLNIRQVQKIENGETLAGNTTAKNLLALADALGIDPHKL”, the “soluble fraction (log2)” value is -2.15.

Consider “HMTAYENSIPLNWVIQKGDAKGLPLSANTARLLIDIVGIDLMDLDHELEKISLYLSGESITEEMIKEHIRG”, for which the “soluble fraction (log2)” value is -0.709.

Take “HMTDAELDLLTPREQEVLQLIARGYLYKEIARRLGISVKTVEAHASSVLRKLQLSTRHELSHWAAQRH”: the “soluble fraction (log2)” value is -0.0813.

Turning to “HMTDAYEVLDLNREASDEEIKKRYRELIREHHPDTLIAKGVPQEFVDLANDKMAAINAAYDRIEKDRGL”, the “soluble fraction (log2)” value turned out to be 0.56.

Turning to “HMTDEEKENLREKMLEAGFPLLKQYGMTHTSVAKITQAAGIAVGTFYSFWKNKEAYMADLIGYHRR”, the “soluble fraction (log2)” value is -1.27.

With “HMTDITSAITRLNKYNKSGTPLTIDSVTPEALQTLQAKVSSAFEIGAVNQQTYDDVTKDIATLQQYLSSA”, the “soluble fraction (log2)” value is 0.378.

“HMTDIVPNLIGKSLKDAIQSVEKSNLKAIFDGHGIVVSQQPRPGSPIPARKIMKVTLSPDYR”: the “soluble fraction (log2)” value was -0.13.

With “HMTDKLEEEAKKKAMEDALADEMNISKTIVHDGIRELARIGFLDVISRKGIYVADYTFTGNLETLLAVIRY”, the “soluble fraction (log2)” value was -0.848.

For “HMTDLDDFAARLKTLTDGRASTPRLRDGVMMLSLDVGGLGPDQRDGLIAAIREGGLTVPGVSDVRIVMT”, the “soluble fraction (log2)” value was -0.125.

Take “HMTDLEDDEKKVYRLIVESGEGIDFDTLSERSGFSATELPSILLFLMMKEMIDELPGKIYRYSE”: the “soluble fraction (log2)” value was -0.0725.

In the case of “HMTDMYLTYQELRHLGVSQNLISMWKSRKSIDFHMLGGTLYVRYMSIPEQTRSKLALQNVERVYNSRE”, the “soluble fraction (log2)” value was -2.6.

Turning to “HMTDRINIGDVVTIISKDREDSQIVYMRYHKGKLSILGELILNKTKNDTVDFKGRTYDIATIEKS”, the “soluble fraction (log2)” value was -2.22.

Take “HMTDVHFIDVPVSEGHPWIGLTVKDLNLPPGTLLVFLNHPGEKSTVPNGDTVLREGDVLVLGATAYAG”: the “soluble fraction (log2)” value is -0.384.

Turning to “HMTDYKTNLQEFLQQDGEVEIEYKLLAEVGPSHARQFEVDVMMGDRVLGSGVGRNKKAAEQAAAKVALSKL”, the “soluble fraction (log2)” value is -0.0613.

For the sequence “HMTDYVPTIGTKISKDFGSKGYFEGEVVSGPHNVTVEGDNMVVWKVQYEDGDREEMTASEIAHWKA”, the “soluble fraction (log2)” value is -0.104.

For “HMTEAIDVPNLVGQNYSDVKSNSSYKFNWDIINVYDSGKPEGEIIKQEPEAGSKKVKENAVITLTVN”, the “soluble fraction (log2)” value was 0.538.

Take “HMTEDNDLETIAYDILKERNLNNININVKNGVLNIYGKTETLKEKREIEKILSSLNVSKINNLIKI”: the “soluble fraction (log2)” value was determined as 0.258.

Regarding “HMTEDQDWAIFKQKLKAQTEIDLDLYKEPQMKHRIKNLIQNAGFDSYVQYFDYVYLNQDRLAAFLENLTV”, the “soluble fraction (log2)” value is -0.535.

Turning to “HMTEEELLERLDAVITEYKGKPGALIPVLQLAQGIFGYLPEVALKHIARQLDKPYSEVAGVVSFYSFFTT”, the “soluble fraction (log2)” value stood at 0.291.

“HMTEFDVIMKSFGSEKIKVIKEVRAITGLGLAEAKALVEGVPAKIKEQVSKDDAEALKKQLEAVGAEVEL”: the “soluble fraction (log2)” value is -0.0848.

In the case of “HMTEFWTGPITTVTKANFADWTLDTNQDRITANVWLTRADSKGLFNITPGKETAFDIVDYLSPLDTEWA”, the “soluble fraction (log2)” value was -0.209.

“HMTEGDRLARRILRLVRNKPNGYPEVELMKATVLDWNHFQRSISSLEMAGILERRDPGDGTPPVWVEKR”: the “soluble fraction (log2)” value was -1.53.

In the case of “HMTEKIEWYKEVLDLEPNSKIFFPLAKMLEKEGELEEARRVLAEGVSRHEEFLEARLFYISVLSRL”, the “soluble fraction (log2)” value is -0.301.

For “HMTENLELLATGSLWTEPDGSGKIISYLIPGLRVKKLETNGIFYKIQLQNGLIGWADQSLFTIAEPK”, the “soluble fraction (log2)” value was -1.62.

For “HMTENQKNIDLIKIVSLLVHAAKIDENYTNKEKELIINFINNFSKENKQNIKSSEILEEAEKYEK”, the “soluble fraction (log2)” value came to 0.132.

“HMTEPKRIVDHWQPSDDVYDILRMSHIDLDFARSLLPEFIVYWKDSSQTHTSWNSKFLQHAKYHWAKRHQL”: the “soluble fraction (log2)” value was -2.27.

Take “HMTEPLTKREKEVLLLLPRGLTAKAMASELFLTEATIKSHLAAIFRKFKVVNRTQAIAIAVESKILT”: the “soluble fraction (log2)” value was -2.41.

Turning to “HMTESLVITVDPALHGLRLDRGLADALPDRSRSEVQRWIKEGRVQLHGAPAKPSLKLAAGDIVTIALPEE”, the “soluble fraction (log2)” value is 0.442.

Turning to “HMTESSTYFEKIGTEISQFKSIPKNIDVIIIEKLIYSGIIKKVDNEENSRVYYILTRKGRYFWKRYVLS”, the “soluble fraction (log2)” value came to 0.16.

Take “HMTETFVLNLRQPIAAAPVLPGYRVARTDEQTLEVEVSKDQNLNEIFTALSALGVEVLSMRNK”: the “soluble fraction (log2)” value is -0.0438.

Take “HMTFAEADAQYEVIKQQYLAGALDEEQFDEQLHRLMVLDDGGLWWAKSRENGSWHYYDPDREDWIAATP”: the “soluble fraction (log2)” value is -0.394.

Take “HMTFEAKKGYINADMSVNVRETASTSATVIITLNPNTEVKVVGEENDFYKIEYKEYKGYVAKRLISDSQVQ”: the “soluble fraction (log2)” value is -0.747.

In the case of “HMTFPTEAKLTGDKVFVRSGPSTQSQRLTNLAINSVVTVLAREMGDMQYPWYKVRYSDGEGWVYGQYVEAI”, the “soluble fraction (log2)” value was -1.08.

As to “HMTFTQFAESHGVIIKSLKASDKIQRGPTVAHPKSDNGAWLWDGNRGGVMAWDGDGQWYWFK”, the “soluble fraction (log2)” value is -1.73.

As to “HMTGEERRMNTADLYRRRGMELFKRKIYVDAIDSLKVSLEYEDNATTRYYLDLATKRYQDLKIS”, the “soluble fraction (log2)” value was -2.13.

Regarding “HMTGETWAERSRALAAAGLIVMGQEAKNKIEDLPSLSPLIEAAAASETRLLTGQIIDELLAFV”, the “soluble fraction (log2)” value was -0.589.

“HMTGIELLSHREHQVYDLLTQGRTVTEIGAQLNLAPNTVSTYRARILEKTGTKNDVELALYAQRH”: the “soluble fraction (log2)” value is -0.22.

In the case of “HMTGKASEIAALLEQRIAAGDYPAGSKLPSERELAASFHVSRNTIRDAIALLAARKIVSTKWGAGTVVLG”, the “soluble fraction (log2)” value was -0.967.

On to “HMTGLRETIPAALDGERLDRVVALLGDVSRSRASAALEAERVTLDGEVVTLRSHRVREGEELTVAGFE”, for which the “soluble fraction (log2)” value worked out at 0.417.

Consider “HMTGLSAQILAKLRDNHGVLPVSDKSDPAVISNLFGVSKGNFKKAIGGLYKEGQIVIHADRIEL”, for which the “soluble fraction (log2)” value was -0.0972.

Take “HMTGLSFEEKDLLGNALKLLDETERRIVILHATSGLKHREIAKQLDIPLPTVLSKYTRAIKKLKKHME”: the “soluble fraction (log2)” value is -1.14.

For the sequence “HMTGPSYTTRRVEAAETMMEFLRTFPQAAPFIGDLYVKAQDWPLGEEIGDRLKKMLPPQLQE”, the “soluble fraction (log2)” value was -0.698.

Regarding “HMTGQVASMVERLAQRLKDQPQDAEGWAMLARSYSVLGRHPEALQAYEKALALRKDDANLLADYADSLA”, the “soluble fraction (log2)” value was -0.23.

As for “HMTGRHEEAIQELKRTLELHPQKPKIFLLLGVSYLRLNNLKKAVEAFNTVLLLQPKNQKALTMLKEIKKR”, the “soluble fraction (log2)” value is -0.178.

Consider “HMTGSLLVEVQGRPDADRLLGQALVDAGLTARPAGGALIEVEVRDETTPDVVRDLTVDLGLGLVRMQERH”, for which the “soluble fraction (log2)” value is -0.548.

Consider “HMTGSLRIKHKTYYMLFSWKDESGQWRQKSESTGIPERGGKRKAQEMLNTRLEELQLQSTASL”, for which the “soluble fraction (log2)” value was -3.87.

With “HMTGSLRVTSSPSGAEIYVDEIYRGYTPLTIGSLSTGRHEVRLHLSGYQDYTRTVEIESGSQSSFSVTLT”, the “soluble fraction (log2)” value is -1.46.

As for “HMTGSTSVAQVSTPSGSLNLRAYASTSARVLLQIPEYAFVTVYNRGATWSYVSYNGVSGYVMSVYLSFGG”, the “soluble fraction (log2)” value was -2.31.

For the sequence “HMTGTVKVNSLNVYKSASLDSEVKDTLVLNTKVTIAENGQVTDGIYVWGRLQSGEGYVQMNNLTL”, the “soluble fraction (log2)” value was -0.418.

As for “HMTHRRLELTLDAIDERLDRALTAAVPELSRMQWQRLIREGLVTVDGERARPSYRIQGGETLVALVPEV”, the “soluble fraction (log2)” value was -0.448.

Regarding “HMTIAEGLIFRFTEPFKPIDQYTYYIMGDNKVEQIPNFKTLEVMLAQRNQNYLSVRVIEKSQLDDILKEF”, the “soluble fraction (log2)” value is -4.16.

Turning to “HMTIDETKKQQVKDGLKDIPGVTVEFVGDKAVLKGAVTDANRVKIMQIVMAAKVLSDASGLTSK”, the “soluble fraction (log2)” value is -0.422.

As for “HMTIDTSNDLLNQITEATSKGPISILELKDQLNVNASDIEGELRTLIDQHLVFLKDGMLQVIPFD”, the “soluble fraction (log2)” value came out at 0.797.

As for “HMTIEEMAIENINFSTQLLYKAMKYNGVNTVGDLLEKARSKKDLLTMAYIGNKEAEEIIEKLSELGITI”, the “soluble fraction (log2)” value was -1.63.

Turning to “HMTIFGWQQDETGKWYRNADGTFYENGWKEIDGAQYYFDENGYVTTGWLELDGKDYYFDEEGKYDSTKVR”, the “soluble fraction (log2)” value was -0.445.

In the case of “HMTIGPALAIGGNKVEMTQQGKIQVTNPQGKIKTLSQDEFKKQLVKNADKIEAGQDFEFKKD”, the “soluble fraction (log2)” value came to 0.275.

Turning to “HMTIKLFPNPSTDFIRVSELSAKENYKIYTILGSEIKRGSVSNNETIDIRNLNSGVYLLKFDNGTTKKIVK”, the “soluble fraction (log2)” value was -1.

Turning to “HMTIKTAFPAEDLAKPDNFKSLLYYFGLLTIRGTKWGSTLLAIPNLTVREQLYSYLVEAYRSADL”, the “soluble fraction (log2)” value was 0.331.

With “HMTILKEGMSGPEVERLQDALKRHGFDPGRVDGQFGPGTEAAILAFQKSEGLRADGVAGPKTQQALGLE”, the “soluble fraction (log2)” value was determined as 0.121.

Turning to “HMTIRLKELRKQKGNTQAEVAKILGTNQSQYGKYENERTQLSLDNAKILSDYFGVSVPYLLGLDDNP”, the “soluble fraction (log2)” value is -0.361.

Regarding “HMTISDTAYQAFLEQLGVGMVVEHKRFGEGVITGMPKGKIRITFEEGTKSFQARALAESGMLK”, the “soluble fraction (log2)” value was -0.875.

With “HMTISIAEQIFEQLEREILSGAYPRGELLTETKLSEKLGVSRTPIREALRRLDQEHIIKMTTKGAFVLGI”, the “soluble fraction (log2)” value is -2.4.

In the case of “HMTITIGNSDGGYMKMGADGFEVRFSGSDGGNHYAKMYYNNDGWARLTLGSYGEEKARIDSDGMIQTR”, the “soluble fraction (log2)” value was determined as 0.108.

As to “HMTKEAIAQKLRIARQESGLTQKDVSAKIGRPQQTIASWEVGRSQPDADTLYSLLLLYKVSPNTFFEYD”, the “soluble fraction (log2)” value was -1.18.
